Numbering of substitutions follows the chain as printed. Numbers in names are those of the source. Blank lines part the entries; values can stand above or below the binder they belong to.
Legend:
human CD81 mutant V135A = biological target: T1, human CD81 mutant V135A (human, UniProt P60033 1-236, limits assumed); assay: ELISA
T1 construct: as m30; not shown: C-terminal V5 and 6xHis tags
T1 sequence: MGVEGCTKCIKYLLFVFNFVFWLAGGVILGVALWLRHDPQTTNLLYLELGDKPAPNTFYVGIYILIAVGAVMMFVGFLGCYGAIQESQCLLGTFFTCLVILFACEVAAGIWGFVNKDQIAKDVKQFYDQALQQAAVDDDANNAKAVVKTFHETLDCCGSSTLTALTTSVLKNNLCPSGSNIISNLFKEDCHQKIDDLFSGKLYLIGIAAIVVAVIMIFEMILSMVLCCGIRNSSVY

human CD81 mutant A164T = biological target: T2, human CD81 mutant A164T (human, UniProt P60033 1-236, limits assumed); assay: ELISA
T2 construct: as m30; not shown: C-terminal V5 and 6xHis tags
T2 sequence: T1 sequence with A135V, A164T

human CD81 mutant L165A = biological target: T3, human CD81 mutant L165A (human, UniProt P60033 1-236, limits assumed); assay: ELISA
T3 construct: as m30; not shown: C-terminal V5 and 6xHis tags
T3 sequence: T1 sequence with A135V, L165A

human CD81 mutant V169A = biological target: T4, human CD81 mutant V169A (human, UniProt P60033 1-236, limits assumed); assay: ELISA
T4 construct: as m30; not shown: C-terminal V5 and 6xHis tags
T4 sequence: T1 sequence with A135V, V169A

human CD81 mutant A164V = biological target: T5, human CD81 mutant A164V (human, UniProt P60033 1-236, limits assumed); assay: ELISA
T5 construct: as m30; not shown: C-terminal V5 and 6xHis tags
T5 sequence: T1 sequence with A135V, A164V

human CD81 mutant S168T = biological target: T6, human CD81 mutant S168T (human, UniProt P60033 1-236, limits assumed); assay: ELISA
T6 construct: as m30; not shown: C-terminal V5 and 6xHis tags
T6 sequence: T1 sequence with A135V, S168T

human CD81 mutant V169L = biological target: T7, human CD81 mutant V169L (human, UniProt P60033 1-236, limits assumed); assay: ELISA
T7 construct: as m30; not shown: C-terminal V5 and 6xHis tags
T7 sequence: T1 sequence with A135V, V169L

[1] = biological target: T8, human CD81 on CD81-expressing cells (Jurkat E6.1, human PBMC, Ramos) (human, UniProt P60033 1-236); assay: cell-based or functional assay
T8 sequence: T1 sequence with A135V

human CD81 mutant I194A = biological target: T9, human CD81 mutant I194A (human, UniProt P60033 1-236, limits assumed); assay: ELISA
T9 construct: as m30; not shown: C-terminal V5 and 6xHis tags
T9 sequence: T1 sequence with A135V, I194A

human CD81 mutant D137A = biological target: T10, human CD81 mutant D137A (human, UniProt P60033 1-236, limits assumed); assay: ELISA
T10 construct: as m30; not shown: C-terminal V5 and 6xHis tags
T10 sequence: T1 sequence with A135V, D137A

human CD81 mutant G158S = biological target: T11, human CD81 mutant G158S (human, UniProt P60033 1-236, limits assumed); assay: ELISA
T11 construct: as m30; not shown: C-terminal V5 and 6xHis tags
T11 sequence: T1 sequence with A135V, G158S

human CD81 mutant V135L = biological target: T12, human CD81 mutant V135L (human, UniProt P60033 1-236, limits assumed); assay: ELISA
T12 construct: as m30; not shown: C-terminal V5 and 6xHis tags
T12 sequence: T1 sequence with A135L

human CD81 mutant H151R = biological target: T13, human CD81 mutant H151R (human, UniProt P60033 1-236, limits assumed); assay: ELISA
T13 construct: as m30; also called H151B; not shown: C-terminal V5 and 6xHis tags
T13 sequence: T1 sequence with A135V, H151R

relative binding affinity (human CD81 mutant V135A): < 20% | relative binding affinity (human CD81 mutant A164T): < 20% | relative binding affinity (human CD81 mutant L165A): < 20% | relative binding affinity (human CD81 mutant V169A): < 20% | relative binding affinity (human CD81 mutant I194A): < 20% | relative binding affinity (human CD81 mutant A164V): < 20% | relative binding affinity (human CD81 mutant V169L): < 20% | Jurkat chemotaxis (% of control IgG4) at 0.001 µg/mL [1]: 101% | Jurkat chemotaxis (% of control IgG4) at 0.01 µg/mL [1]: 88% | Jurkat chemotaxis (% of control IgG4) at 0.1 µg/mL [1]: 38% | Jurkat chemotaxis (% of control IgG4) at 1 µg/mL [1]: 13% | Jurkat chemotaxis (% of control IgG4) at 10 µg/mL [1]: 15%
B2: 002-F07 (antibody, human IgG4 S228P, lambda, V domains shown)
VH: EVQLLESGGGLVQPGGSLRLSCAASGFTFSSNYMSWVRQAPGKGLEWVSYISSSSTYTDYADSVKGRFTISRDNSKNTLYLQMNSLRAEDTAVYYCARYSYGRDSFDYWGQGTLVTVSS
VL: QSVLTQPFSASGTPGQRVTISCTGSTSNIGAGFDTHWYQQLPGTAPKLLIYGNSNRPSGVPDRFSGSKSGTTASLAISGLRSEDEADYYCQSYDTNLSVWVFGGGTKLTVLG
notes: IgG4 S228P

relative binding affinity (human CD81 mutant V135A): < 20% | relative binding affinity (human CD81 mutant A164T): < 20% | relative binding affinity (human CD81 mutant L165A): < 20% | relative binding affinity (human CD81 mutant V169A): < 20% | relative binding affinity (human CD81 mutant I194A): < 20% | relative binding affinity (human CD81 mutant A164V): < 20% | relative binding affinity (human CD81 mutant V169L): < 20% | Jurkat chemotaxis (% of control IgG4) at 0.001 µg/mL [1]: 91% | Jurkat chemotaxis (% of control IgG4) at 0.01 µg/mL [1]: 86% | Jurkat chemotaxis (% of control IgG4) at 0.1 µg/mL [1]: 16% | Jurkat chemotaxis (% of control IgG4) at 1 µg/mL [1]: 1% | Jurkat chemotaxis (% of control IgG4) at 10 µg/mL [1]: 2%
B3: 003-A11 (antibody, human IgG4 S228P, lambda, V domains shown)
VH: B2 VH with S30G, S105N
VL: B2 VL with F8P, F33Y, T72S, V99G
notes: IgG4 S228P

relative binding affinity (human CD81 mutant V135A): < 20% | relative binding affinity (human CD81 mutant A164T): < 20% | relative binding affinity (human CD81 mutant L165A): < 20% | relative binding affinity (human CD81 mutant V169A): < 20% | relative binding affinity (human CD81 mutant I194A): < 20% | relative binding affinity (human CD81 mutant A164V): < 20% | relative binding affinity (human CD81 mutant S168T): < 20% | relative binding affinity (human CD81 mutant V169L): < 20% | Jurkat chemotaxis (% of control IgG4) at 0.001 µg/mL [1]: 89% | Jurkat chemotaxis (% of control IgG4) at 0.01 µg/mL [1]: 87% | Jurkat chemotaxis (% of control IgG4) at 0.1 µg/mL [1]: 35% | Jurkat chemotaxis (% of control IgG4) at 1 µg/mL [1]: 4% | Jurkat chemotaxis (% of control IgG4) at 10 µg/mL [1]: 9%
B4: 002-F01 (antibody, human IgG4 S228P, lambda, V domains shown)
VH: B2 VH with S105N
VL: B2 VL with F8P, F33Y, T72S, V99A
notes: IgG4 S228P

Continued, binder first:

B1: 002-A07 S115N (antibody, human IgG4 S228P, lambda, V domains shown)
VH: B2 VH with S105N
VL: B2 VL with F8P, F33Y, T72S, S98N
notes: IgG4 S228P; glycosylation site mutant of 002-A07 VL
relative binding affinity (human CD81 mutant V135A): < 20% | relative binding affinity (human CD81 mutant A164T): < 20% | relative binding affinity (human CD81 mutant L165A): < 20% | relative binding affinity (human CD81 mutant V169A): < 20% | relative binding affinity (human CD81 mutant A164V): < 20% | relative binding affinity (human CD81 mutant S168T): < 20% | relative binding affinity (human CD81 mutant V169L): < 20% | Jurkat chemotaxis (% of control IgG4) at 0.001 µg/mL [1]: 79% | Jurkat chemotaxis (% of control IgG4) at 0.01 µg/mL [1]: 69% | Jurkat chemotaxis (% of control IgG4) at 0.1 µg/mL [1]: -4% | Jurkat chemotaxis (% of control IgG4) at 1 µg/mL [1]: -11% | Jurkat chemotaxis (% of control IgG4) at 10 µg/mL [1]: -9%

B5: 002-B05 (antibody, human IgG4 S228P, lambda, V domains shown)
VH: B2 VH with G102S, S105N
VL: B2 VL with F8P, F33Y, D34G, Q40R, T72S
notes: IgG4 S228P
relative binding affinity (human CD81 mutant V135A): < 20% | relative binding affinity (human CD81 mutant D137A): < 20% | relative binding affinity (human CD81 mutant G158S): < 20% | relative binding affinity (human CD81 mutant A164T): < 20% | relative binding affinity (human CD81 mutant L165A): < 20% | relative binding affinity (human CD81 mutant V169A): < 20% | relative binding affinity (human CD81 mutant V135L): < 20% | relative binding affinity (human CD81 mutant H151R): < 20% | relative binding affinity (human CD81 mutant A164V): < 20% | relative binding affinity (human CD81 mutant V169L): < 20% | Jurkat chemotaxis (% of control IgG4) at 0.001 µg/mL [1]: 84% | Jurkat chemotaxis (% of control IgG4) at 0.01 µg/mL [1]: 78% | Jurkat chemotaxis (% of control IgG4) at 0.1 µg/mL [1]: 10% | Jurkat chemotaxis (% of control IgG4) at 1 µg/mL [1]: -1% | Jurkat chemotaxis (% of control IgG4) at 10 µg/mL [1]: -10%
